In this experiment the target is Apurinic/apyrimidinic-endonuclease 1 (UniProt P27695 1-318). Put plainly: SPR.

These results are taken from paper PMC11176775 (2024).

Sequence of Apurinic/apyrimidinic-endonuclease 1 (P27695 whole entry): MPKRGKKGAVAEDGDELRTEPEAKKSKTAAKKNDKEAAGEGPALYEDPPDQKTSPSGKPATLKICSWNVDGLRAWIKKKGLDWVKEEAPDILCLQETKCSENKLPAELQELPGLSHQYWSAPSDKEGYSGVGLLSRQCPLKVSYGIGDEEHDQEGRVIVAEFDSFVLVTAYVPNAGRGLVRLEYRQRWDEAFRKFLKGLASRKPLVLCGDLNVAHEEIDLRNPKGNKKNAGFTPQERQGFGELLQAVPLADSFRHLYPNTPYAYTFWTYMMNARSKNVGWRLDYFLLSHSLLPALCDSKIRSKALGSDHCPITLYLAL

B1: LIGIIIα▵ZnF (170–922 amino acids) (domain or fragment)
chain: RHKDCLLREFRKLCAMVADNPSYNTKTQIIQDFLRKGSAGDGFHGDVYLTVKLLLPGVIKTVYNLNDKQIVKLFSRIFNCNPDDMARDLEQGDVSETIRVFFEQSKSFPPAAKSLLTIQEVDEFLLRLSKLTKEDEQQQALQDIASRCTANDLKCIIRLIKHDLKMNSGAKHVLDALDPNAYEAFKASRNLQDVVERVLHNAQEVEKEPGQRRALSVQASLMTPVQPMLAEACKSVEYAMKKCPNGMFSEIKYDGERVQVHKNGDHFSYFSRSLKPVLPHKVAHFKDYIPQAFPGGHSMILDSEVLLIDNKTGKPLPFGTLGVHKKAAFQDANVCLFVFDCIYFNDVSLMDRPLCERRKFLHDNMVEIPNRIMFSEMKRVTKALDLADMITRVIQEGLEGLVLKDVKGTYEPGKRHWLKVKKDYLNEGAMADTADLVVLGAFYGQGSKGGMMSIFLMGCYDPGSQKWCTVTKCAGGHDDATLARLQNELDMVKISKDPSKIPSWLKVNKIYYPDFIVPDPKKAAVWEITGAEFSKSEAHTADGISIRFPRCTRIRDDKDWKSATNLPQLKELYQLSKEKADFTVVAGDEGSSTTGGSSEENKGPSGSAVSRKAPSKPSASTKKAEGKLSNSNSKDGNMQTAKPSAMKVGEKLATKSSPVKVGEKRKAADETLCQTKVLLDIFTGVRLYLPPSTPDFSRLRRYFVAFDGDLVQEFDMTSATHVLGSRDKNPAAQQVSPEWIWACIRKRRLVAPC
For the molecule B1, the Kd worked out at 4.9 nM.

B2: LIGIIIα▵BRCT (1–755 amino acids) (domain or fragment)
chain: MAEQRFCVDYAKRGTAGCKKCKEKIVKGVCRIGKVVPNPFSESGGDMKEWYHIKCMFEKLERARATTKKIEDLTELEGWEELEDNEKEQITQHIADLSSKAAGTPKKKAVVQAKLTTTGQVTSPVKGASFVTSTNPRKFSGFSAKPNNSGEAPSSPTPKRSLSSSKCDPRHKDCLLREFRKLCAMVADNPSYNTKTQIIQDFLRKGSAGDGFHGDVYLTVKLLLPGVIKTVYNLNDKQIVKLFSRIFNCNPDDMARDLEQGDVSETIRVFFEQSKSFPPAAKSLLTIQEVDEFLLRLSKLTKEDEQQQALQDIASRCTANDLKCIIRLIKHDLKMNSGAKHVLDALDPNAYEAFKASRNLQDVVERVLHNAQEVEKEPGQRRALSVQASLMTPVQPMLAEACKSVEYAMKKCPNGMFSEIKYDGERVQVHKNGDHFSYFSRSLKPVLPHKVAHFKDYIPQAFPGGHSMILDSEVLLIDNKTGKPLPFGTLGVHKKAAFQDANVCLFVFDCIYFNDVSLMDRPLCERRKFLHDNMVEIPNRIMFSEMKRVTKALDLADMITRVIQEGLEGLVLKDVKGTYEPGKRHWLKVKKDYLNEGAMADTADLVVLGAFYGQGSKGGMMSIFLMGCYDPGSQKWCTVTKCAGGHDDATLARLQNELDMVKISKDPSKIPSWLKVNKIYYPDFIVPDPKKAAVWEITGAEFSKSEAHTADGISIRFPRCTRIRDDKDWKSATNLPQLKELYQLSKEKADFTVVA
Molecule B2 came in with a Kd of 1050 nM.
